Target: T1, Zur (Acinetobacter baumannii ATCC 17978, UniProt V5VHH0 1-161)
T1 sequence: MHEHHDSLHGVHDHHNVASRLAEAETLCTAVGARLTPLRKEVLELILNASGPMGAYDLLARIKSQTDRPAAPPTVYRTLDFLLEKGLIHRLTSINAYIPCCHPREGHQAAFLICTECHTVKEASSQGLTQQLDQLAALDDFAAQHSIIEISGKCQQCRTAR
Experiment: EMSA; 100 uM ZnCl2; Zur 0-2500 nM, DNA 250 nM; 20 mM Tris-HCl pH 8.0, 50 mM KCl, 1 mM DTT, 5% glycerol, 100 uM ZnCl2, 20 min at room temperature; 4% polyacrylamide gel
Conditions: protein: recombinant; tags: N-terminal 6xHis (pET15b), removed by thrombin; chain copies: 2; label: none (SYBR green stain); blunt

B1: znuA intragenic negative control (dsDNA)
DNA 1: GTTACAAAAATACCTAAGATTAATCGAAT
DNA 2: ATTCGATTAATCTTAGGTATTTTTGTAAC
**Q.** Does B1 bind?
**A.** no binding
